First the molecules themselves.
B2: BiP (natural protein)
chain: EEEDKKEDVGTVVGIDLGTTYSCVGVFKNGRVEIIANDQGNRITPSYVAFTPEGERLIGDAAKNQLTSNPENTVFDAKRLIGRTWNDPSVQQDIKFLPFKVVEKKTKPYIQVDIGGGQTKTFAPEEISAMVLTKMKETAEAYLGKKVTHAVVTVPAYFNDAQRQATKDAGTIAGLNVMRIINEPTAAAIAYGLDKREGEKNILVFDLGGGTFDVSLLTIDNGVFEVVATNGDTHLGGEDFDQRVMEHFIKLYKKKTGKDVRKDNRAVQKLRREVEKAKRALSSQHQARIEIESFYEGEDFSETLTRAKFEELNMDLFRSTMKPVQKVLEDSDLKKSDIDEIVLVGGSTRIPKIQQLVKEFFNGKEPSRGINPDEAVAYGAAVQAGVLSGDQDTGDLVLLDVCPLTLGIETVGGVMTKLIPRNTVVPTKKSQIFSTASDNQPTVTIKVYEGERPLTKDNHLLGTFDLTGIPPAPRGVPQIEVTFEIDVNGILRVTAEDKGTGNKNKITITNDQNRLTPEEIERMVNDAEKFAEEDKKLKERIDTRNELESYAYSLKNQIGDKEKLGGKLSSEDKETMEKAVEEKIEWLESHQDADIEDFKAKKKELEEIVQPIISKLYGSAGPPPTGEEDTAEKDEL

Common to all, as to assay: MST
The target in experiment [1] is B2.
For experiment [2], the target named is PERK luminal domain L395N (human, UniProt Q9NZJ5 105-403, L395N).
For experiment [3], the target named is PERK luminal domain A378N (human, UniProt Q9NZJ5 105-403, A378N).

B1: human PERK luminal domain (residues 105–403) (domain or fragment)
chain: LVIISTLDGRIAALDPENHGKKQWDLDVGSGSLVSSSLSKPEVFGNKMIIPSLDGALFQWDQDRESMETVPFTVESLLESSYKFGDDVVLVGGKSLTTYGLSAYSGKVRYICSALGCRQWDSDEMEQEEDILLLQRTQKTVRAVGPRSGNEKWNFSVGHFELRYIPDMETRAGFIESTFKPNENTEESKIISDVEEQEAAIMDIVIKVSVADWKVMAFSKKGGHLEWEYQFCTPIASAWLLKDGKVIPISLFDDTSYTSNDDVLEDEEDIVEAARGATENSVYLGMYRGQLYLQSSVRI
Molecule B1 displayed a Kd in experiment [1] of 2000 nM. In other words, the single-digit micromolar range.

For B2, the Kd in experiment [2] came to 1800 nM; in experiment [3], 2300 nM.

(Values after article PMC4474532 (2015).)
